Data reported in the RNAGym collection of RNA variant scans (doi:10.1073/pnas.2313332121).
This sample holds only a part of the variants without activity.

B1: TPR 5TU (parent)
chain: GGAUCUUCUCGAUCUAACAAAAAAGACAAAUCUGCCACAAAGCUUGAGAGCAUCUUCGGAUGCAGAGGCGGCAGCCUUCGGUGGCGCGAUAGCGCCAACGUUCUCAACUAUGACACGCAAAACGCGUGCUCCGUUGAAUGGAGUUUAUCAUG

Variants of: B1
Assay: polymerase ribozyme fitness, log enrichment relative to wild type (log ratio); higher = more active; in vitro selection for triplet polymerase activity
Procedure, shortened: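 Each subunit of a heterodimeric triplet polymerase ribozyme was mutagenized into a library by PCR, transcribed, and subjected to one round of in vitro selection, run in triplicate. Libraries were annealed with a biotinylated primer, the partner subunit and triplets, incubated frozen at −7 °C, and extended constructs were gel-excised, captured on streptavidin beads and recovered by RT-PCR. Input and output libraries were sequenced on Illumina, keeping genotypes with ≥10 input reads and ≥1 read per output. Fitness is log base 2 of genotype enrichment divided by wild-type enrichment, from inverse-variance-weighted replicate averages.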

Row | Variant | polymerase ribozyme fitness (log ratio)
1 | A23U C57A G92C C149G | ≤ -4.2
2 | U56G G141U | 0.498
3 | U31A G70A C76A C96U | ≤ -4.2
4 | C96A A115C | -0.888
5 | G50U G83A C95G A107G | ≤ -4.2
6 | C72U A73U G83A | -2.51
7 | C85U G94C G143A | -1.78
8 | C14A A20U A60G A66U C93G | ≤ -4.2
9 | U56A C95A | -0.487
10 | G92A A98C G133C A142U | ≤ -4.2
11 | C38U C63U A73G C118U A150G | -2.88
12 | A19C A21U U101A | 0.427
13 | U33G G124A U134G | ≤ -4.2
14 | C96A U146A U148A | -4.17
15 | C10G A40C U78G G84U G88U G141U | ≤ -4.2
16 | G11U C14G G46A U55A C87U | ≤ -4.2
17 | A3G A24U U55A C85A | -2.17
18 | A17U C35U A97U G141A | -1.34
19 | A40C C87U G117C | -0.313
20 | C14G A66U C69A | ≤ -4.2
21 | A47C U55A C87G A91G A150G | ≤ -4.2
22 | A19U C35G C43A U56A G58U C85U A113G A122C U151A | ≤ -4.2
23 | C43U C72U G92U | ≤ -4.2
24 | U33C A37G C63A C87G U111G U151A | ≤ -4.2

Row | Variant | polymerase ribozyme fitness (log ratio)
25 | A26G C75A G81A G140A U148C | ≤ -4.2
26 | C75G A113U | ≤ -4.2
27 | A17U C69U G84C A97G | ≤ -4.2
28 | A60G C69A A91U A97U U134C | ≤ -4.2
29 | A26C G86A C99U G141C | -3.84
30 | U31G C54G | -1.02
31 | C8A U55A C79U G84A C108G G124A | ≤ -4.2
32 | U53A C85G G133C A150C | ≤ -4.2
33 | A3U C93U | -1.81
34 | U55A G71U G117A | -3.07
35 | G86C A89U | -2.94
36 | G59A A106G U134A | -2.03
37 | G68C G86U A89U C96A A110U C114U | ≤ -4.2
38 | C129G G143A | -2.23
39 | U15G A49G C87U G136A | -1.17
40 | A20C G50C U55G C105U | ≤ -4.2
41 | A28G C93U C118A | ≤ -4.2
42 | C57U C95A G136A | -0.1
43 | U77G A89C U104C | ≤ -4.2
44 | C85U C103G C108U A115U G143A | ≤ -4.2
45 | A37U U44A G86C | ≤ -4.2
46 | A26U C54A G65A A98G | -4.2
47 | G11A G84A C85U G88A C99A C131G U139C | ≤ -4.2
48 | C10G A37U U55A G94A C95G G140C | ≤ -4.2

Row | Variant | polymerase ribozyme fitness (log ratio)
49 | U135A | -0.939
50 | U4A G11A A28U G65A C72U G80U G84C A91C A97C A106C C118U G141U | ≤ -4.2
51 | A21U C75G G86A U101C | -4.03
52 | G81A G94A G143U | -2.83
53 | A22C A28U G62A G65C U90A C99U C108U C116G | ≤ -4.2
54 | C36A C54G U61G C79A G80A U102C | ≤ -4.2
55 | A113G A147C | -2.73
56 | G68U U134G | ≤ -4.2
57 | A60G G67U G86A | -4.13
58 | A39G C87U | -2.33
59 | C51A C85U C103G G124A U145G A150G | ≤ -4.2
60 | C10U G42C U53A A66G A91G A110C | ≤ -4.2
61 | G59U C103U | -0.503
62 | U6G G94C C123A | 0.0628
63 | C96U G128U U146C | -3.35
64 | A52U A137G | -2.89
65 | G58A C85G | -2.86
66 | U55G G94A | -1.43
67 | A21U G58C A73G C85G | -1.7
68 | A24U A28U A39C G59C A60U A66G G68C C79G G81A C116G C125U | ≤ -4.2
69 | G50C U134A | -3.17
70 | A3G C75A C93A A97U A98U U101G C118U | ≤ -4.2
71 | C14U G84A | -1.56
72 | A17U C54G C96U | -2.08

Row | Variant | polymerase ribozyme fitness (log ratio)
73 | G81C C87A C99G | ≤ -4.2
74 | A52G C57A C79U C85A C116U A122G | ≤ -4.2
75 | A30U G94C A121G | -3.43
76 | U45G C85G C93U | ≤ -4.2
77 | G25C U78G C87U G117U C118U U148A | ≤ -4.2
78 | A40C G84A G94A C131U U139A | -4.09
79 | A17C | 0.315
80 | A3G A24U C69G C93G A119G C132G U139A | ≤ -4.2
81 | A21G C36U C57A | -0.735
82 | U55G C75G C76G G84U C118A U139C | ≤ -4.2
83 | A47C G59A G62C G67C G68C C99U A107U C114A A121G | ≤ -4.2
84 | C14G U56A | -2.57
85 | U53A U61A A106U C129U | -3.27
86 | C5U A22C G83C C93U U101G C116A | -2.06
87 | A21G A29G G83C A98U | ≤ -4.2
88 | G83A | -0.336
89 | A16U A28U C54U G117C | ≤ -4.2
90 | U31G G59U A138U | ≤ -4.2
91 | A49U U55G G58A C123A G126U U148A | ≤ -4.2
92 | G133U U148G | -4.1
93 | U9C A40C U56A C96G U101C U134C | ≤ -4.2
94 | A12G U55C C57G C87G A121G U148A A150C | ≤ -4.2
95 | A52C G71A C85A G94C G141U | ≤ -4.2
96 | A21U A24C A26U U44G A89U A91G G128U G140C U145A | ≤ -4.2

Row | Variant | polymerase ribozyme fitness (log ratio)
97 | U55C U127A U139G | -3.31
98 | C5G G25C C54A C75G G83U | ≤ -4.2
99 | U6C A23G U61A | ≤ -4.2
100 | C35G C87U | -4.18
101 | A12U U56C G59A G88C | ≤ -4.2
102 | C8G G84A | -3.43
103 | U4A G48U C57G C93U G136A U146G | -2.55
104 | C57G C125A | -0.508
105 | C18A A19C A40C C85U | 0.244
106 | A3G U6A U31G G88U | ≤ -4.2
107 | C93A U127C | -3.6
108 | A60G A66C G94U C108U C125U U139C | -4
109 | C5U U9C A29C C93U C103U G126U | ≤ -4.2
110 | U4C C43U C85U G133A G141U | ≤ -4.2
111 | A23U A40U A73G | ≤ -4.2
112 | U15C U61A A89G A98G | -1.62
113 | G59U A107C A121U | -3.86
114 | U31C G34A U78C G83C U145G | ≤ -4.2
115 | G81A A97G C125U | -0.572
116 | C18A A20G G46C U56C G94C C105G A122U | -0.89
117 | C10A G11U A30U C36A G48A C87G A122G | ≤ -4.2
118 | C38U A73G U101A | -0.277
119 | C76A U82G U146A | -0.356
120 | C54G C108U | -4.19

Row | Variant | polymerase ribozyme fitness (log ratio)
121 | C8G G62C G70U C96A C103U | ≤ -4.2
122 | G46A G86C C118U A122U | -3.45
123 | G25U A52C C63U G88C U127C | ≤ -4.2
124 | A17U A21U G67C C76U A91U C118G | ≤ -4.2
125 | A30G C95G | -3.11
126 | U90C U148G | ≤ -4.2
127 | U13G C87G | ≤ -4.2
128 | U45A A47U U77G C114G A122U | ≤ -4.2
129 | G48C C76A C93U G94A A138C G140A U146G | ≤ -4.2
130 | U13A U15C A26C C93A | -3.05
131 | U15A C43U U53G C76A U102G A119G G128U U135G A142U | ≤ -4.2
132 | A16U A49C G50A C54G C96A U101C U135G | ≤ -4.2
133 | A16G U56A | -1.7
134 | C10A G58C A66U G80A C95U C96U U144G | ≤ -4.2
135 | C38U C63G A97U G143C | -3.67
136 | C8G A17G A21U A98G | -3.93
137 | C87U C123U G126U | 0.848
138 | U55A C105G | -1.73
139 | G58A A89G G94A | -1.91
140 | C14U G140A | ≤ -4.2
141 | C85G A122U | -1.53
142 | A41C U53A G92U | -1.22
143 | U31G C35U C57U G117A | -0.0701
144 | A17G A21C C116U | 0.03

Row | Variant | polymerase ribozyme fitness (log ratio)
145 | A66G C96U A138U U151A | ≤ -4.2
146 | A47U G62A U127C G133U | ≤ -4.2
147 | A40C C93U | 0.422
148 | U13C G25C C76A A97U C103G C105G U139C | ≤ -4.2
149 | C57G C96G U104G | -4.16
150 | U4G U6G A22C A73G G83C | ≤ -4.2
151 | C14A C116G | -0.826
152 | C43U U61G G94U C116U U144G C149G | ≤ -4.2
153 | U9A C87A | ≤ -4.2
154 | G133C U144C C149U | -3.98
155 | U9G A47G | -3.86
156 | G86A A121U | -0.51
157 | A41U U44A G65C C85G G143U | ≤ -4.2
158 | A40U C79G G88U A107G C149A | ≤ -4.2
159 | C72U C93U A97U A115U | -3.88
160 | G68C C93U A113U | ≤ -4.2
161 | A3U G67U A107U | ≤ -4.2
162 | A21C C85G C103U G136A | -1.18
163 | A16U A37U C79A C99U U139A A142U | ≤ -4.2
164 | G46C C93U C96U | -2.86
165 | G59C U61A A64C | ≤ -4.2
166 | A37C U55A C72U G88C A98G C103G U127C U134A | ≤ -4.2
167 | A19U A22U A47C G80A G86A C87A C95U U104G A120U | ≤ -4.2
